Laboratory results published in the domain aggregation screens of Martell et al. (2025).

Assay: soluble fraction after stress (log2 fold change); higher = more stays soluble; pooled small domains, quantitative proteomics
Conditions: stress: pH 4
Method in brief: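 High-throughput quantitative proteomics was run on pooled custom libraries of small protein domains following pH 4 stress. Fold changes are on a log2 scale; higher values mean more of a domain remained soluble. The fold change in soluble amount is taken as a measure of aggregation propensity.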

Row | Sequence | soluble fraction (log2)
1 | HMSGIESIVIPLKGLDFDMISSTLTPQLKQAIKYDKQSDSIILVGTNAKVNIIAKQVNAMVEVYKLKT | -0.0326
2 | HMSGIGTTIKMLRENKNISQEELGNVLGVSDKTISSWEINRTEPKMGIVQLLADYFGVSTDYLIKG | -0.201
3 | HMSGILINGELYKPGEQMSLKQRLSIQARIQMQGEDTVKPEMLKDFYNSGGPLSKEESSEYMKSQN | -0.321
4 | HMSGIQNNFITRLKKVLAPTIGIAEEISDLLNISIDSAYRRIRGETDFTFEEIYIITRKHKISIDEIYG | -2.14
5 | HMSGIVPAAPPLRPDLDIKWHTGDKVRHAKWGEGTIVSVKGEGEETELKIAFPGQGIRPFMQKYAPITR | 0.214
6 | HMSGLEDIKKKILEDAGIKKGSVKFVKVDKDYDDGIWKYEIDFVYDGKEYEYEIEVETGKILSRKTEKSD | 0.165
7 | HMSGLVPAIGTKGEEGYIRESDIPGSNVKNPEEALAYMEWLKTQPSELLIPLYDEQGNVIGQFAVS | -0.681
8 | HMSGMEKLAIQEIEKEIKSFVKGDILIELTGKNRATAYVSEKNVGALIGKKGERINSIEKRLGVGIDVRPY | -0.275
9 | HMSGMNSDHRVNGNIHTFLIQHDLGTKWSVFTEQLLKQVFRSFLPDKELNFQTTDSTVILKVSLGSDFNEH | -0.19
10 | HMSGPAEDLLAIEGMDKELAYELAARGIRTRDELADQSLDELEAVPGLDPVRAGQLIMAARAHLFENAGQ | -0.355
11 | HMSGRSVSYSEFMSRVEAGQVSSVTLDGERVEVTGSDGSRYVTIAPSDATLTDKLVAKGVEVRADP | 0.196
12 | HMSGSKEQQIVILNNILERQLQAFGLQGNREFPMVTLKNIYNSLSKIIENAGLKNVENYFVNPEQGKQM | -0.394
13 | HMSGTFIGGELVKPGEPLTPMQRAAITMGLQMGNTYSPEIMEKYNNAGGSPSKEEFENYQKNKS | 0.22
14 | HMSHGFFELKTTQKEALIKLLDSHPNFTHTKTEADLTTAFLKLPMDAEQFNKLLFTNGIVLSHLVKRK | -0.276
15 | HMSHGYVEMQAKDDQVLLAALKNHPWFEKVSIDEETGLTKAILTQPIEAEELNSMLFEKGIVLSHLVKRK | -1.2
16 | HMSHISLGQRYKIEGYLQINLKRTQIAKEIGLPKKTVNQEIKRNSNPQTGIYKAEEAHQLYLDRMQKKRK | 0.426
17 | HMSHKYKLTVPETGEGTRVDKFLSSALTELSRTRLKSLIEEGQVTLGGVKLTNPSHRVKSGDELNIEIPVP | 0.0568
18 | HMSHPNAPLTPEGRRRLAVLIVEDGWTIRRAAERFQVSPATASKWARRYRAGESLTDRSSRP | 0.0223
19 | HMSHSDMEEWTDAVRSRRKKLGLTQVQIARRLGVTSHHFSQIESGRTIPSASLQIEIDRLLKNWND | 0.0462
20 | HMSHSVLIDISQLRIGMYIQLDVGWMHHPFPVSSFRVASLEQIEALRTLNLAQVRYFPAKSDPV | -1.11
21 | HMSIAEMSGARKSAILLLALDEDSAAEIFKYLSAGEVQEISMEMAKLNQVSHDDMKAVLEAFHKETEEFV | -1.02
22 | HMSIAKIIGDRIRAYRNQKGWSQEYLAEKADVHHTYIGQLERGEKNATIESISKIAGALGVSLSRLFEN | 0.192
23 | HMSIEHVPGYTTLSKREQEIVHALLTRKTPEELADDLSISINTLNKHISHIYHKLGIRGRMQLFDYA | -0.0894
24 | HMSIEIKTIDVKHADLFQLQDILRNLYPELNIVPDQRNNKLILQGKRELLVEAERLTLQLDTE | -1.29
25 | HMSIESPEEFNAKFPPGSEIYATNIQKNAIVQSPANAKGDVEILANSMRLTINFRFISKRDT | 0.334

Row | Sequence | soluble fraction (log2)
26 | HMSIGPQMAGRRVLSGDLIARLEAFEGTVVLGRGVAREDALLIATQAGHVRWEPASRRLWVDSTA | -0.0304
27 | HMSIHPRDKADLGTALSKWKKGALDDKQLELEVARVFMRTYGKKLEGQALNKAVAAWVAALTQSKK | ≥ 0.43
28 | HMSINIDEEKKILGPNADQIIKGITTWGQGLVSKGIWSDADFEEFKIFAATGNGINALNKVRKYY | -0.65
29 | HMSIQMPDLSITPVTDAKKKIESLQLQYKEVGEYNDSVIAGYVIRTEPASGSYLNEDEEVIIYVSKG | -0.525
30 | HMSISEFNYTEFNGLVEKGQVSEVTISGREIEGRLTSGESFKTYSPETDNSALVGDLLKNNVKINGKP | -0.158
31 | HMSITKDNLSIGTNIRISGFSDIGRIISIPNKGNQVQVQIGSAKMNIKINSIVEIIKEEKDFNKNISN | 0.189
32 | HMSIYMNIYNEFKKYIIANVYKYDDKLPSVRSIALEYGINPNTVQRAFQLLEDEGYIKTISKKGVYVNYR | 0.112
33 | HMSKAYLSVESNISGARVFVDGQKEGTTPLSDVLLSAGEHLILVKKQGYETYQKRVRFQKGRSMSLYVDLS | -0.0554
34 | HMSKDQKKFFIEIVSIRGFGSQIGISILNKLSIPQIINAIKTQNKKEISSIPGIGQKMTERLILELNNKFK | -0.691
35 | HMSKININTITESELKELPISTVKQKAIQDYLIDRGFISNIYDLLDIKEITSDDVSLLKKVVNVKLPY | -0.796
36 | HMSKIVPVAYSQFLKDVKNGNVSQVEIRGNNIKGINNNGSSFSTYAPNDLSLIDKLEKSNVEIIVMPLE | -0.232
37 | HMSKKLLVLQTSDDAKAKDVLSQNGYQLDDGDKLSIIETEQTKMADVIKLLSDNAIDIEDVQHVH | -0.116
38 | HMSKLQETEIPVALEVEKIPGLSNELKQKLLKIKPQTIGQASRISGITPAAISILMIYIKKNESISAVK | -0.399
39 | HMSKLQKTKYAGVYFTEDTQTRVKTYVARIVLAGIIDTEVVVGHSNDQHRTNAAIAYQRRLELIQEAKN | -0.372
40 | HMSKLSLREIVKKFEEQIIQLHKRGLNHSEISREIVTKNSIDLGDSHIDSLRRAISVHLQTP | -0.201
41 | HMSKPIREVAYETLKNAIVTGEIPAGSRIVETEYAERMHISRTPLREALRKLERDGLVEYVVRRGVVVRAF | -0.303
42 | HMSKPTLTLKSNAYPYNLNGERINNYLGFTYIKKGATLNYQGSKRINGQNYYYIGDGAYIKNTTVGSTNN | ≥ 0.43
43 | HMSKQDRRIRRTRRLLKESLIQLMQEKEFMNISVREVTERADLNRGTFYLHYQDTRHLLQDIENETL | -1.86
44 | HMSKQEFVDRLRVSLSGKISPASVEDNARYYEDYINTHIRLGEPEEDVLEGLGDPRLIARSIVAAESV | -0.0405
45 | HMSKQLGFKIKTARRKLNISQGDLSKKLEISPSYLNLIESGKRKVSTDLLMKASEILNLDLKKL | ≥ 0.43
46 | HMSKQQFLDELAARLREEGAELLVAENLNFYRSYIEEEVAKGRSEEEVLAELGNPALIARSILDAAGF | -1.15
47 | HMSKSIELMNEIKKYIEEYYLQYRQSPSTTKIAEAVGIARGTAYKYLVEMSERNMIEYDGQEISTEVTRKY | -0.381
48 | HMSKSKSEIDKDPHFWSSLFQRIGEGESLRKIAKDSKIPKSTLWAWIRNDPQLALRYSEAQQ | 0.00982
49 | HMSLAATLSPREIDTVRLIAVGSSNKEIARQLGIAETTVKIHVQHILRKLNLTSRVQVAVFANAEGII | -0.407
50 | HMSLAISGRNQLHGIIEEVRSDGLLSQIYLRVGDQVLTAVITRDAVAELKLKRGDTAVAIMKSTEVMIARE | 0.0191
